Data from patent US20170306033A1 (Amgen, published 2017).
Residue numbers refer to the chain shown, from its start.

B1: iPS:327687 (bispecific antibody, human IgG1, kappa, N297G)
light 1: DIQLTQSPSFLSASVGDRVTITCRASQSIGRSLHWYQQKPGKAPKLLIKYASQSLSGVPSRFSGSGSGTEFTLTISSLQPEDFATYYCHQSSRLPFTFGPGTKVDIKRTVAAPSVFIFPPSDEQLKSGTASVVCLLNNFYPREAKVQWKVDNALQSGNSQESVTEQDSKDSTYSLESTLTLSKADYEKHKVYACEVTHQGLSSPVTKSFNRGEC
heavy 1: not shown
light 2: EIVLTQSPGTLSLSPGERATLSCRASQSVSSGYLTWYQQKPGQAPRLLIYGASSRATGIPDRFSGSGSGTDFTLTISRLEPEDFAVYYCQQYGNSLSRFGQGTKLEIKRTVAAPSVFIFPPSDEQLKSGTASVVCLLNNFYPREAKVQWKVDNALQSGNSQESVTEQDSKDSTYSLKSTLTLSKADYEKHKVYACEVTHQGLSSPVTKSFNRGEC
heavy 2: not shown
B2: iPS:328001 (bispecific antibody, human IgG2, kappa, lambda)
light 1: EIVLTQSPATLSLSPGERATLSCRASQSVGRSLHWYQQKPGQAPRLLIKYASQSLSGIPARFSGSGSGTDFTLTISSLEPEDFAVYYCHQSSRLPFTFGPGTKVDIKRTVAAPSVFIFPPSDEQLKSGTASVVCLLNNFYPREAKVQWKVDNALQSGNSQESVTEQDSKDSTYSLESTLTLSKADYEKHKVYACEVTHQGLSSPVTKSFNRGEC
heavy 1: QVQLVESGGGVVQPGRSLRLSCAASGFTFSRFAMHWVRQAPGKGLEWVAVISYDGGNKYYAESVKGRFTISRDNSKNTLYLQMNSLRAEDTALFYCARGYDVLTGYPDYWGQGTLVTVSSASTKGPSVFPLAPCSRSTSESTAALGCLVKDYFPEPVTVSWNSGALTSGVHTFPAVLQSSGLYSLKSVVTVPSSNFGTQTYTCNVDHKPSNTKVDKTVERKCCVECPPCPAPPVAGPSVFLFPPKPKDTLMISRTPEVTCVVVDVSHEDPEVQFNWYVDGVEVHNAKTKPREEQFNSTFRVVSVLTVVHQDWLNGKEYKCKVSNKGLPAPIEKTISKTKGQPREPQVYTLPPSREEMTKNQVSLTCLVDGFYPSDIAVEWESNGQPENNYDTTPPMLDSDGSFFLYSDLTVDKSRWQQGNVFSCSVMHEALHNHYTQKSLSLSPGK
light 2: QSVLTQPPSVSAAPGQKVTISCSGSSSNIGNNYVSWYQQLPGTAPKLLIYDNNKRPSGIPDRFSGSKSGTSTTLGITGLQTGDEADYYCGTWDSRLSAVVFGGGTKLTVLGQPKANPTVTLFPPSSEELQANKATLVCLISDFYPGAVTVAWKADGSPVKAGVETTKPSKQSNNKYAAKSYLSLTPEQWKSHRSYSCQVTHEGSTVEKTVAPTECS
heavy 2: QVQLVESGGGVVQPGRSLRLSCAASGFTFSSFGMHWVRQAPGKGLEWVAVISFDGSIKYSVDSVKGRFTISRDNSKNTLFLQMNSLRAEDTAVYYCARDRLNYYDSSGYYHYKYYGMAVWGQGTTVTVSSASTKGPSVFPLAPCSRSTSESTAALGCLVKDYFPEPVTVSWNSGALTSGVHTFPAVLQSSGLYSLESVVTVPSSNFGTQTYTCNVDHKPSNTKVDKTVERKCCVECPPCPAPPVAGPSVFLFPPKPKDTLMISRTPEVTCVVVDVSHEDPEVQFNWYVDGVEVHNAKTKPREEQFNSTFRVVSVLTVVHQDWLNGKEYKCKVSNKGLPAPIEKTISKTKGQPREPQVYTLPPSRKKMTKNQVSLTCLVKGFYPSDIAVEWESNGQPENNYKTTPPMLKSDGSFFLYSKLTVDKSRWQQGNVFSCSVMHEALHNHYTQKSLSLSPGK
B3: iPS:327706 (bispecific antibody, human IgG1, kappa, lambda, N297G)
light 1: B2 light 1
heavy 1: not shown
light 2: B2 light 2 with T72A
heavy 2: QVQLVESGGGVVQPGRSLRLSCAASGFTFSSFGMHWVRQAPGKGLEWVAVISFDGSIKYSVDSVKGRFTISRDNSKNTLFLQMNSLRAEDTAVYYCARDRLNYYDSSGYYHYKYYGMAVWGQGTTVTVSSASTKGPSVFPLAPSSKSTSGGTAALGCLVKDYFPEPVTVSWNSGALTSGVHTFPAVLQSSGLYSLESVVTVPSSSLGTQTYICNVNHKPSNTKVDKKVEPKSCDKTHTCPPCPAPELLGGPSVFLFPPKPKDTLMISRTPEVTCVVVDVSHEDPEVKFNWYVDGVEVHNAKTKPCEEQYGSTYRCVSVLTVLHQDWLNGKEYKCKVSNKALPAPIEKTISKAKGQPREPQVYTLPPSRKEMTKNQVSLTCLVKGFYPSDIAVEWESNGQPENNYKTTPPVLKSDGSFFLYSKLTVDKSRWQQGNVFSCSVMHEALHNHYTQKSLSLSPGK
B4: iPS:327688 (bispecific antibody, human IgG1, kappa, N297G)
light 1: B2 light 1
heavy 1: not shown
light 2: B1 light 2
heavy 2: not shown
B5: iPS:327693 (bispecific antibody, human IgG1, kappa, lambda, N297G)
light 1: B2 light 1
heavy 1: not shown
light 2: B2 light 2
heavy 2: B3 heavy 2 with D105E
B6: iPS:327705 (bispecific antibody, human IgG1, kappa, lambda, N297G)
light 1: B1 light 1
heavy 1: not shown
light 2: B2 light 2 with T72A
heavy 2: B3 heavy 2
B7: iPS:327691 (bispecific antibody, human IgG1, kappa, lambda, N297G)
light 1: B1 light 1
heavy 1: not shown
light 2: B2 light 2
heavy 2: B3 heavy 2 with D105E
B8: iPS:327690 (bispecific antibody, human IgG1, kappa, lambda, N297G)
light 1: not shown
heavy 1: not shown
light 2: B2 light 2
heavy 2: B3 heavy 2 with D105E
B9: iPS:327694 (bispecific antibody, human IgG1, kappa, lambda, N297G)
light 1: DIQMTQSPSSLSASVGDRITITCRASQSISRYLNWYQQKPGKAPKLLIYAASSLQSGIPSRFSGSGSGTDFTLTINSLQPEDFATYFCQQSYSPPFTFGEGTKVDIKRTVAAPSVFIFPPSDEQLKSGTASVVCLLNNFYPREAKVQWKVDNALQSGNSQESVTEQDSKDSTYSLESTLTLSKADYEKHKVYACEVTHQGLSSPVTKSFNRGEC
heavy 1: not shown
light 2: B2 light 2 with G103K
heavy 2: B3 heavy 2 with G44E, D105E
B10: iPS:327696 (bispecific antibody, human IgG1, kappa, lambda, N297G)
light 1: not shown
heavy 1: not shown
light 2: B2 light 2 with G103K
heavy 2: B3 heavy 2 with G44E, D105E

The binders below were run against human CGRP receptor (human, UniProt Q16602 23-461; O60894 27-148) (assay: cell-based or functional assay).
Chain of human CGRP receptor (Q16602 23-461 limits assumed, chain 1 of 2): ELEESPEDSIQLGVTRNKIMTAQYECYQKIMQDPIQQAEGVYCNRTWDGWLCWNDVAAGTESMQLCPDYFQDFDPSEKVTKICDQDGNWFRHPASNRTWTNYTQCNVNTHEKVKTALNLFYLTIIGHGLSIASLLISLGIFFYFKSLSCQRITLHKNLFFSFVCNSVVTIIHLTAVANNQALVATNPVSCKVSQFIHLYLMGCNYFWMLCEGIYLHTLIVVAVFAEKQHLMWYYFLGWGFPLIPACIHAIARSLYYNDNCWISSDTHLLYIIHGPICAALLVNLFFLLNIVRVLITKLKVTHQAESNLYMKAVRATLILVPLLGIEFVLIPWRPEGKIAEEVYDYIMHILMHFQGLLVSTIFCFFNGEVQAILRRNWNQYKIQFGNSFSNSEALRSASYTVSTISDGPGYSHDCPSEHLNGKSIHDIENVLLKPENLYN
Chain of human CGRP receptor (O60894 27-148 limits assumed, chain 2 of 2): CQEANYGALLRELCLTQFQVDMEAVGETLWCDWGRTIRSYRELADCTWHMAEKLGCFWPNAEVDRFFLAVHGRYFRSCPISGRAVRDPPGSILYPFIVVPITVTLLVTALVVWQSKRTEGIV

% inhibition of human CGRPR	Binder
91%	B1
65%	B2
87%	B3
89%	B4
76%	B5
88%	B6
73%	B7
80%	B8
87%	B9
87%	B10

The binders below were run against T1, human PAC1 receptor (human, UniProt P41586 21-468) (assay: cell-based or functional assay).
T1 sequence: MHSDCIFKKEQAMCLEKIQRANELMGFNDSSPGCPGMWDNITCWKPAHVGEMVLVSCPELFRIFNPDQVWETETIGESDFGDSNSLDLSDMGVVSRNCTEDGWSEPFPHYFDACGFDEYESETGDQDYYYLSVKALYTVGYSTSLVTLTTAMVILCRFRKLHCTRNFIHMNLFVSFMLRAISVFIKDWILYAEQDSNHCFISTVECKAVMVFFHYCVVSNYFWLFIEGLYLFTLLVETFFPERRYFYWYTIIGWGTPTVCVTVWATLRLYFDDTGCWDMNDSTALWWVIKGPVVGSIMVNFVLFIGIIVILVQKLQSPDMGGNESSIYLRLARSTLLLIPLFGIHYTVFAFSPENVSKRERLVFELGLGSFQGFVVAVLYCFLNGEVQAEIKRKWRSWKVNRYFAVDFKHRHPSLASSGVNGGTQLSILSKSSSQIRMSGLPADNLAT

% inhibition of human PAC1	Binder
62%	B1
95%	B2
103%	B3
103%	B4
82%	B5
56%	B6
25%	B7
50%	B8
75%	B9
10%	B10
